From patent publication US20250002610A1 (Genmab, published 2025)

Key:
[1] = biological target: T1, cynomolgus monkey DR4 with death domain deletion on ExpiCHO-S cells (cynomolgus monkey (Macaca fascicularis)); assay: flow cytometry on ExpiCHO-S cells transiently expressing cynomolgus monkey DR4 (death domain deleted), gMFI PE
T1 construct: also called cynomolgus DR4
T1 chain: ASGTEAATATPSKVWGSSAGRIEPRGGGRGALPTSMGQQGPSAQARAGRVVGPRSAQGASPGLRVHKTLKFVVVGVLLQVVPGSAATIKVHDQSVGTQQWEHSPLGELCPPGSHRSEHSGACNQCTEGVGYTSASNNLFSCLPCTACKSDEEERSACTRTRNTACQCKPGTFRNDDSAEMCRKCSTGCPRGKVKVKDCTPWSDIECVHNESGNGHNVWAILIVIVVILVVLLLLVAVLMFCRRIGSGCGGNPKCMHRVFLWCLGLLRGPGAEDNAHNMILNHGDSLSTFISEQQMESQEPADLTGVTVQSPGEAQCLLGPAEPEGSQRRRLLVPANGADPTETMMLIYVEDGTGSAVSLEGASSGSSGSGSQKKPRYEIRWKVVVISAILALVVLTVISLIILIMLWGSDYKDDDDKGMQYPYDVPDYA

human DR4HsECD-FcHisCtag = biological target: T2, human DR4HsECD-FcHisCtag (human); assay: BLI, antigen captured on anti-Penta-HIS sensors
T2 construct: also called recombinant human DR4
T2 sequence (chain, as listed by the source limits assumed): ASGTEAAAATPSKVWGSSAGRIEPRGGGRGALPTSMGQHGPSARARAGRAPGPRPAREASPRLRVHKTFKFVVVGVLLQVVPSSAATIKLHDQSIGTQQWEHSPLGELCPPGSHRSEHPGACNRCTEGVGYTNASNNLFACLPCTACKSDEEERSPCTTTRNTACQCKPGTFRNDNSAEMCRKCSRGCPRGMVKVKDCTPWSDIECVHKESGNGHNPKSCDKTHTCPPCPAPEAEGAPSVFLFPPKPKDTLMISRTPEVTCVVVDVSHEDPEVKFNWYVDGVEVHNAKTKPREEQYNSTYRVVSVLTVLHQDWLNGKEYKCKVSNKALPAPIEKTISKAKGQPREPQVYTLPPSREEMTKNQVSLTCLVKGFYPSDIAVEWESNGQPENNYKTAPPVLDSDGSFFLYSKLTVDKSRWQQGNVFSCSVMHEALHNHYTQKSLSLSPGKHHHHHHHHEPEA
Procedure: The binding affinity of BisG1-FAPα-FERL/DR4-FERR, BisG1-b12-FERL/DR4-FERR and control BisG1-FAPα-FERL/b12-FERR to recombinant human and cynomolgus monkey DR4 protein was determined using label-free biolayer interferometry on an Octet HTX instrument (Sartorius).
The protocol detailed in Example 5 was used with the following differences: anti-Penta-HIS biosensors (Sartorius, Cat #18-5120) were used; the sensors were preconditioned by exposure to 10 mM glycine (Sigma-Aldrich, Cat #15527) buffer pH 1.5 for 5 s, followed by neutralization in Sample Diluent (Sartorius, Cat #18-1104) for 5 s; both steps were repeated 2 times; the sensors were loaded with 50 nM human DR4HsECD-FcHisCtag (SEQ ID NO: 66), or cynomolgus DR4MfECD-FcHisCtag (SEQ ID NO: 67), for 600 s; the dissociation time was 1,000 s; The window of interest for the dissociation time was set at 100 s for the cynomolgus antigen and at 1,000 s for the human antigen.

[2] = biological target: T3, rat FAPα on Expi293F cells (rat (Rattus norvegicus), UniProt P97321 1-761 (mouse entry)); assay: flow cytometry on Expi293F cells transiently expressing rat FAPα, gMFI PE
T3 chain: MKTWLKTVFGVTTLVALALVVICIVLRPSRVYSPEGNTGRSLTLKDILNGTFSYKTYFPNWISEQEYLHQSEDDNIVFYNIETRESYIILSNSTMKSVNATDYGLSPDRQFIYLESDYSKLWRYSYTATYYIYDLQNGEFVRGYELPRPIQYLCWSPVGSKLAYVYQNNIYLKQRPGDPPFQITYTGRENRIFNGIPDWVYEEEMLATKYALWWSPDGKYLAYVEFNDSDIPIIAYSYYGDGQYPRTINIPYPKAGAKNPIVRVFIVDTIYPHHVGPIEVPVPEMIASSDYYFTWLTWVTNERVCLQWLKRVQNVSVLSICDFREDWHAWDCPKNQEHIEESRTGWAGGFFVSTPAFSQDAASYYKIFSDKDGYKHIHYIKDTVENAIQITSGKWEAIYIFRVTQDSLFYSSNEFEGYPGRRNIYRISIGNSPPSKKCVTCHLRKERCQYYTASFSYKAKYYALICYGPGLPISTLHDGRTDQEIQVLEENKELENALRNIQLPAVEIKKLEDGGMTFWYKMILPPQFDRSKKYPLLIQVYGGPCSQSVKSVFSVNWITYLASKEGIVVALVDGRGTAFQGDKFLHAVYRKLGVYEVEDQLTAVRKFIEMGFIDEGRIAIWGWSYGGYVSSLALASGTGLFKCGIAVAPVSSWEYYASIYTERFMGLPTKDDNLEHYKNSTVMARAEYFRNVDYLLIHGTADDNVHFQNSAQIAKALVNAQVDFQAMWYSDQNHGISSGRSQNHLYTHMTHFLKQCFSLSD
Procedure: Binding of BisG1-FAPα-FERL/DR4-FERR, BisG1-FAPα-FEAL/b12-FEAR and IgG1-FAPα-FERL to FAPα of species commonly used for nonclinical toxicology studies was assessed by flow cytometry using Expi293F cells transiently expressing FAPα from different animal species. IgG1-b12 was included as negative control.
Expi293F cells expressing recombinant FAPα from various species (human, cynomolgus monkey, dog, pig, rat or mouse) were seeded (20,000 cells/well) in 96-Well round bottom plates (Greiner Bio-one, Cat #650101). Antibody dilutions were prepared using FACS buffer, consisting of PBS (Capricorn Scientific, Cat #PBS-10XA, diluted to 1×PBS in distilled water)+1% BSA (Roche, Cat #10735086001)+0.02% Sodium Azide (Bio-World, Cat #41920044-3). Plates were centrifuged, supernatant was removed, and cells were resuspended in 100 μL of antibody dilutions (concentration range 30-0.00017 μg/mL with three-fold serial dilutions using FACS buffer) of BisG1-FAPα-FERL/DR4-FERR, BisG1-FAPα-FEAL/b12-FEAR, IgG1-FAPα-FERL and IgG1-b12 and incubated for 30 min at 4° C. […] Antibody binding to viable cells (gMFI of PE on TO-PRO-3 negative cells) was analyzed by flow cytometry on a FACS Celesta and FACS_Diva software (first two experiments) or iQue® 3 and FlowJo software (last experiment). gMFI was determined and visualized using GraphPad Prism. Binding curves were analyzed using nonlinear regression analysis. […]

B1: BisG1-FAPα-FERL/DR4-FERR (bispecific antibody, human IgG1, kappa, lambda)
heavy 1: EVQLLESGGGLVQPGGSPRLSCEASGFTFSSYALSWVRQAPGKGLEWVSAISGSGGGRYYADSVKGRFTISRDNSKNTLFLQMNSLRAEDTAVYYCAKEGYSSSGTYWDHWGQGTLVTVSSASTKGPSVFPLAPSSKSTSGGTAALGCLVKDYFPEPVTVSWNSGALTSGVHTFPAVLQSSGLYSLSSVVTVPSSSLGTQTYICNVNHKPSNTKVDKRVEPKSCDKTHTCPPCPAPEFERGPSVFLFPPKPKDTLMISRTPEVTCVVVDVSHEDPEVKFNWYVDGVEVHNAKTKPREEQYNSTYRVVSVLTVLHQDWLNGKEYKCKVSNKALPAPIEKTISKAKGQPREPQVYTLPPSREEMTKNQVSLTCLVKGFYPSDIAVEWESNGQPENNYKTTPPVLDSDGSFLLYSKLTVDKSRWQQGNVFSCSVMHEALHNHYTQKSLSLSPG
light 1: AIQMTQSPSSVSASVGDRVTITCRASQGVSSWLAWYQQKPGRAPKLLIYVASTLQSGVPSRFSGSGSGTDFTLTINSLQPEDFATYYCQQANSFPPTFGQGTRLEMKRTVAAPSVFIFPPSDEQLKSGTASVVCLLNNFYPREAKVQWKVDNALQSGNSQESVTEQDSKDSTYSLSSTLTLSKADYEKHKVYACEVTHQGLSSPVTKSFNRGEC
heavy 2: QVQLQESGPGLVKPSGTLSLTCAVSGGSISSYSWWSWIRQPPGKGLEWIGELYHSGSTNYNPSLKSRVTISVDKSKNQFSLKLRSVTAADTAVYYCVRGVATIDYWGQGTLVTVSSASTKGPSVFPLAPSSKSTSGGTAALGCLVKDYFPEPVTVSWNSGALTSGVHTFPAVLQSSGLYSLSSVVTVPSSSLGTQTYICNVNHKPSNTKVDKRVEPKSCDKTHTCPPCPAPEFERGPSVFLFPPKPKDTLMISRTPEVTCVVVDVSHEDPEVKFNWYVDGVEVHNAKTKPREEQYNSTYRVVSVLTVLHQDWLNGKEYKCKVSNKALPAPIEKTISKAKGQPREPQVYTLPPSREEMTKNQVSLTCLVKGFYPSDIAVEWESNGQPENNYKTTPPVLDSDGSFFLYSRLTVDKSRWQQGNVFSCSVMHEALHNHYTQKSLSLSPG
light 2: QSALTQPPSASGSPGQSVTISCTGTSSDVGGYNFVSWYQQDPGKAPKLLIYEVTKRPSGVPDRFSGSKSGNTASLTVSGLQAEDEADYYCSSYAGSNNVMFGGGTKLTVLGQPKAAPSVTLFPPSSEELQANKATLVCLISDFYPGAVTVAWKADSSPVKAGVETTTPSKQSNNKYAASSYLSLTPEQWKSHRSYSCQVTHEGSTVEKTVAPTECS
notes: Human IgG1 bispecific made by controlled Fab-arm exchange of IgG1-FAPα-FERL and IgG1-DR4-FERR; monovalent for FAPα and for DR4; also called GEN1057
[1]
  EC50 (read off the curve): ~1 µg/mL

B2: BisG1-FAPα-FERL/b12-FERR (bispecific antibody, human IgG1, kappa)
heavy 1: EVQLLESGGGLVQPGGSPRLSCEASGFTFSSYALSWVRQAPGKGLEWVSAISGSGGGRYYADSVKGRFTISRDNSKNTLFLQMNSLRAEDTAVYYCAKEGYSSSGTYWDHWGQGTLVTVSSASTKGPSVFPLAPSSKSTSGGTAALGCLVKDYFPEPVTVSWNSGALTSGVHTFPAVLQSSGLYSLSSVVTVPSSSLGTQTYICNVNHKPSNTKVDKRVEPKSCDKTHTCPPCPAPEFERGPSVFLFPPKPKDTLMISRTPEVTCVVVDVSHEDPEVKFNWYVDGVEVHNAKTKPREEQYNSTYRVVSVLTVLHQDWLNGKEYKCKVSNKALPAPIEKTISKAKGQPREPQVYTLPPSREEMTKNQVSLTCLVKGFYPSDIAVEWESNGQPENNYKTTPPVLDSDGSFLLYSKLTVDKSRWQQGNVFSCSVMHEALHNHYTQKSLSLSPG
light 1: AIQMTQSPSSVSASVGDRVTITCRASQGVSSWLAWYQQKPGRAPKLLIYVASTLQSGVPSRFSGSGSGTDFTLTINSLQPEDFATYYCQQANSFPPTFGQGTRLEMKRTVAAPSVFIFPPSDEQLKSGTASVVCLLNNFYPREAKVQWKVDNALQSGNSQESVTEQDSKDSTYSLSSTLTLSKADYEKHKVYACEVTHQGLSSPVTKSFNRGEC
heavy 2: QVQLVQSGAEVKKPGASVKVSCQASGYRFSNFVIHWVRQAPGQRFEWMGWINPYNGNKEFSAKFQDRVTFTADTSANTAYMELRSLRSADTAVYYCARVGPYSWDDSPQDNYYMDVWGKGTTVIVSSASTKGPSVFPLAPSSKSTSGGTAALGCLVKDYFPEPVTVSWNSGALTSGVHTFPAVLQSSGLYSLSSVVTVPSSSLGTQTYICNVNHKPSNTKVDKRVEPKSCDKTHTCPPCPAPEFERGPSVFLFPPKPKDTLMISRTPEVTCVVVDVSHEDPEVKFNWYVDGVEVHNAKTKPREEQYNSTYRVVSVLTVLHQDWLNGKEYKCKVSNKALPAPIEKTISKAKGQPREPQVYTLPPSREEMTKNQVSLTCLVKGFYPSDIAVEWESNGQPENNYKTTPPVLDSDGSFFLYSRLTVDKSRWQQGNVFSCSVMHEALHNHYTQKSLSLSPG
light 2: EIVLTQSPGTLSLSPGERATFSCRSSHSIRSRRVAWYQHKPGQAPRLVIHGVSNRASGISDRFSGSGSGTDFTLTITRVEPEDFALYYCQVYGASSYTFGQGTKLERKRTVAAPSVFIFPPSDEQLKSGTASVVCLLNNFYPREAKVQWKVDNALQSGNSQESVTEQDSKDSTYSLSSTLTLSKADYEKHKVYACEVTHQGLSSPVTKSFNRGEC
Human DR4HsECD-FcHisCtag
  binding result: no binding (tested: 800 nM)

B3: IgG1-FAPα-FERL (antibody)
heavy: EVQLLESGGGLVQPGGSPRLSCEASGFTFSSYALSWVRQAPGKGLEWVSAISGSGGGRYYADSVKGRFTISRDNSKNTLFLQMNSLRAEDTAVYYCAKEGYSSSGTYWDHWGQGTLVTVSSASTKGPSVFPLAPSSKSTSGGTAALGCLVKDYFPEPVTVSWNSGALTSGVHTFPAVLQSSGLYSLSSVVTVPSSSLGTQTYICNVNHKPSNTKVDKRVEPKSCDKTHTCPPCPAPEFERGPSVFLFPPKPKDTLMISRTPEVTCVVVDVSHEDPEVKFNWYVDGVEVHNAKTKPREEQYNSTYRVVSVLTVLHQDWLNGKEYKCKVSNKALPAPIEKTISKAKGQPREPQVYTLPPSREEMTKNQVSLTCLVKGFYPSDIAVEWESNGQPENNYKTTPPVLDSDGSFLLYSKLTVDKSRWQQGNVFSCSVMHEALHNHYTQKSLSLSPG
light: AIQMTQSPSSVSASVGDRVTITCRASQGVSSWLAWYQQKPGRAPKLLIYVASTLQSGVPSRFSGSGSGTDFTLTINSLQPEDFATYYCQQANSFPPTFGQGTRLEMKRTVAAPSVFIFPPSDEQLKSGTASVVCLLNNFYPREAKVQWKVDNALQSGNSQESVTEQDSKDSTYSLSSTLTLSKADYEKHKVYACEVTHQGLSSPVTKSFNRGEC
notes: Bivalent monoclonal IgG1 kappa
[2]
  EC50 (read off the curve): ~0.2 µg/mL
